The values below come from the RNAGym collection of RNA variant scans (doi:10.1093/molbev/msab373).

B1: Azoarcus group I ribozyme (parent)
chain: GUGCCUUGCGCCGGGAAACCACGCAAGGGAUGGUGUCAAAUUCGGCGAAACCUAAGCGCCCGCCCGGGCGUAUGGCAACGCCGAGCCAAGCUUCGGCGCCUGCGCCGAUGAAGGUGUAGAGACUAGACGGCACCCACCUAAGGCAAACGCUAUGGUGAAGGCAUAGUCCAGGGAGUGGCGAAAGUCACACAAACCGG

The variants in the data set derive from B1. As to the kind of experiment: reverse-splicing fitness (ratio to wild type); higher = more active; in vitro selection; Mg2+ level not given. The method in brief:
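An in vitro group I ribozyme library with randomized positions was T7-transcribed and gel-purified. In triplicate, 10 pmol RNA in EPPS pH 7.5 was reacted with 50 pmoles of a 30-nt RNA substrate for 1 h at 37 °C across several added MgCl2 levels (1–48 mM), then stopped with EDTA. Products were reverse transcribed from a substrate-complementary primer, PCR-amplified and sequenced (HiSeq 4000). Fitness is a variant's read proportion after selection over that before, normalised to wild type.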
A145G C150A C169A U176G: the reverse-splicing fitness was 0.00608.
As for A145G C150A C169A U176A, the reverse-splicing fitness was 0.0203.
With A120U C150A C169U U176C the figure was 0.0195; with A120U C150A C169U U176G, 0.00432.
The value for A120U C150A C169U U176A was 0.0178; that for A145U C150G C169A U176A was 0.0122.
As to A145U C150G C169A U176C, the reverse-splicing fitness was 0.0151.
Take A145U C150G C169A U176G: the reverse-splicing fitness is 0.00602.
On to A145C, for which the reverse-splicing fitness turned out to be 0.95.
Regarding A145U, the reverse-splicing fitness was determined as 0.946.
The value for A145G was 0.958; that for A145C C150U C169A was 0.0428.
As for A145C C150U C169G, the reverse-splicing fitness was found to be 0.0825.
As to A145C C150U C169U, the reverse-splicing fitness came to 0.122.
On to A120U C150A U176G, for which the reverse-splicing fitness worked out at 0.0831.
Consider A120U C150A U176A, for which the reverse-splicing fitness was found to be 0.178.
With A120U C150A U176C, the reverse-splicing fitness was determined as 0.172.
With A145U C150G, the reverse-splicing fitness came out at 0.512.
In the case of A145U C150U, the reverse-splicing fitness was determined as 0.943.
In the case of A145U C150A, the reverse-splicing fitness is 0.465.
In the case of A145C C150U U176G, the reverse-splicing fitness was found to be 0.308.
A145C C150U U176A: the reverse-splicing fitness came to 0.613.
For the variant A145C C150U U176C, the reverse-splicing fitness is 0.596.
Turning to A145G C150A U176G, the reverse-splicing fitness was found to be 0.184.
A145G C150A U176C: the reverse-splicing fitness was 0.464.
The value for A145G C150A U176A was 0.472.
A145C C150A C169U U176A: the reverse-splicing fitness is 0.023.
With A145C C150A C169U U176G the figure was 0.00589; with A145C C150A C169U U176C, 0.0218; with A145G C169A U176C, 0.0662.
With A145G C169A U176G, the reverse-splicing fitness was 0.00541.
As to A145G C169A U176A, the reverse-splicing fitness worked out at 0.0412.
Consider A145G C150A C169G, for which the reverse-splicing fitness worked out at 0.0594.
As to A145G C150A C169A, the reverse-splicing fitness was determined as 0.0304.
The value for A145G C150A C169U was 0.0924; that for A145G C169G U176C was 0.14; that for A145G C169G U176A was 0.0818.
As for A145G C169G U176G, the reverse-splicing fitness stood at 0.00802.
Consider A145C C150G C169G U176A, for which the reverse-splicing fitness is 0.0135.
As to A145C C150G C169G U176G, the reverse-splicing fitness is 0.00537.
The value for A145C C150G C169G U176C was 0.00959; that for A145U C169U U176A was 0.109; that for A145U C169U U176C was 0.149.
A120U C150U: the reverse-splicing fitness turned out to be 0.774.
With A120U C150A the figure was 0.245; with A120U C150G, 0.206.
As to A145G C150U C169U, the reverse-splicing fitness was determined as 0.382.
As for A145G C150U C169G, the reverse-splicing fitness is 0.239.
Take A145G C150U C169A: the reverse-splicing fitness worked out at 0.136.
On to A145C C169U U176G, for which the reverse-splicing fitness came to 0.0117.
The value for A145C C169U U176A was 0.106; that for A145C C169U U176C was 0.156.
As for A120U A145U C150A C169A, the reverse-splicing fitness came out at 0.00309.
On to A120U A145U C150A C169G, for which the reverse-splicing fitness came out at 0.0282.
Turning to A120U A145U C150A C169U, the reverse-splicing fitness is 0.0358.
In the case of A120U C150U C169U, the reverse-splicing fitness amounted to 0.203.
Consider A120U C150U C169A, for which the reverse-splicing fitness was determined as 0.0111.
For A120U C150U C169G, the reverse-splicing fitness is 0.15.
As to A120U A145U C150U C169G U176G, the reverse-splicing fitness was determined as 0.00311.
The value for A120U A145U C150U C169G U176C was 0.0637.
As for A120U A145U C150U C169G U176A, the reverse-splicing fitness is 0.0285.
On to A120U A145U C150G C169A U176G, for which the reverse-splicing fitness turned out to be 0.00241.
As to A120U A145U C150G C169A U176C, the reverse-splicing fitness was determined as 0.00335.
The value for A120U A145U C150G C169A U176A was 0.00344; that for A120U C169U U176A was 0.0922; that for A120U C169U U176G was 0.0138.
Turning to A120U C169U U176C, the reverse-splicing fitness amounted to 0.139.
In the case of A145U C150G C169U U176A, the reverse-splicing fitness was determined as 0.0182.
In the case of A145U C150G C169U U176C, the reverse-splicing fitness stood at 0.0406.
Take A145U C150G C169U U176G: the reverse-splicing fitness worked out at 0.00591.
For the variant A120U A145G C150U C169U U176G, the reverse-splicing fitness stood at 0.00649.
The value for A145C C169A U176C was 0.05.
With A145C C169A U176A the figure was 0.029; with A145C C169A U176G, 0.00461; with A145U C150U C169G U176C, 0.0907.
Regarding A145U C150U C169G U176A, the reverse-splicing fitness was determined as 0.0606.
The value for A145U C150U C169G U176G was 0.008; that for A145G C150A C169U U176G was 0.00772; that for A145G C150A C169U U176A was 0.0484.
With A145G C150A C169U U176C the figure was 0.0583.
For the variant A120U A145G C150U U176G, the reverse-splicing fitness is 0.155.
Take A120U A145G C150U U176C: the reverse-splicing fitness is 0.532.
Turning to A120U A145G C150U U176A, the reverse-splicing fitness was determined as 0.54.
